B1: GST-ARF-BP1 (3760-4374) (protein)
chain: IQAAVRQLEAEADAIIQMVREGQRARRQQQAATSESSQSEASVRREESPMDVDQPSPSAQDTQSIASDGTPQGEKEKEERPPELPLLSEQLSLDELWDMLGECLKELEESHDQHAVLVLQPAVEAFFLVHATERESKPPVRDTRESQLAHIKDEPPPLSPAPLTPATPSSLDPFFSREPSSMHISSSLPPDTQKFLRFAETHRTVLNQILRQSTTHLADGPFAVLVDYIRVLDFDVKRKYFRQELERLDEGLRKEDMAVHVRRDHVFEDSYRELHRKSPEEMKNRLYIVFEGEEGQDAGGLLREWYMIISREMFNPMYALFRTSPGDRVTYTINPSSHCNPNHLSYFKFVGRIVAKAVYDNRLLECYFTRSFYKHILGKSVRYTDMESEDYHFYQGLVYLLENDVSTLGYDLTFSTEVQEFGVCEVRDLKPNGANILVTEENKKEYVHLVCQMRMTGAIRKQLAAFLEGFYEIIPKRLISIFTEQELELLISGLPTIDIDDLKSNTEYHKYQSNSIQIQWFWRALRSFDQADRAKFLQFVTGTSKVPLQGFAALEGMNGIQKFQIHRDDRSTDRLPSAHTCFNQLDLPAYESFEKLRHMLLLAIQECSEGFGLA
p53 ubiquitination, in vitro ubiquitination assay with purified components (Flag-p53, P04637): high levels of ubiquitinated p53 were generated by ARF-BP1 (lane 2) | NPM/B23 ubiquitination, in vitro ubiquitination assay (GST-B23 protein, P06748): no significant ubiquitination of NPM/B23 was detected by Western blot analysis with the anti-NPM/B23 antibody

Reference: patent publication US20060088847

Chain of GST-B23 protein, P06748 (P06748 whole entry): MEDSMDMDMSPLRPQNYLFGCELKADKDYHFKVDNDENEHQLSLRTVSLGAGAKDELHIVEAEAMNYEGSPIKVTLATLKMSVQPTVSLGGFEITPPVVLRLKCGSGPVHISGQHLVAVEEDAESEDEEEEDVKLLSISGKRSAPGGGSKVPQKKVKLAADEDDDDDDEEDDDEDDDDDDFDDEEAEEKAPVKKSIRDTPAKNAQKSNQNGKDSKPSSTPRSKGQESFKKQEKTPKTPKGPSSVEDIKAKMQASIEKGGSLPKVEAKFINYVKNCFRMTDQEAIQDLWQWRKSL
Chain of Flag-p53, P04637 (P04637 whole entry, looked up): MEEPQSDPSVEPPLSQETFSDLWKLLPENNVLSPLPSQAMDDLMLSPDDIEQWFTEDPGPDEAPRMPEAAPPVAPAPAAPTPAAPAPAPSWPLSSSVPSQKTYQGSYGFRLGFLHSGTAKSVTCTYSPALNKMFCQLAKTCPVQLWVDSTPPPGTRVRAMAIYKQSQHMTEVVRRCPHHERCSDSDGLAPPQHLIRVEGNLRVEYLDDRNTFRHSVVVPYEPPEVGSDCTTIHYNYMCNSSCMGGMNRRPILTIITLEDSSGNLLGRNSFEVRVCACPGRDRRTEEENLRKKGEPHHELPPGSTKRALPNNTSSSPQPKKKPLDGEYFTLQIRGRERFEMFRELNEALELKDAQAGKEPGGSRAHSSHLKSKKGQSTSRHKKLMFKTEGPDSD
